Like-named read-outs stand apart in the source and are kept apart here.
How the values were obtained:
[1] = molecular target: T1, rI-FABP (SEQ ID NO: 3) variant BL22P1B11, MGI-KR14-14R 18L 25C 27A 38V 60R 73F 106L 115R 117D, SEQ ID NO: 35 (Rattus norvegicus, UniProt P02693, A74F/K101R/K126R/K17R/K21R/K28A/K30R/K38R/K47R/K51R/K89R/K8R/K93R/K95R/L39V/L73A/M19L/Q116R/R107L/V26C/V61R/Y118D/Y15R); type: binding
T1 construct: made in house

[2] = type: binding
[3] = Table 6, lysine labeled probes, Primary Fluor Acrylodan
[4] = Table 6, Primary Fluor Acrylodan
[5] = Table 6, Primary Fluor Biotium CF750 SE
[6] = Table 6, Primary Fluor Kodak X-Sight 670 LSS dye
[7] = Table 6, Primary Fluor LiCor IRDye 680 LT
[8] = Table 6, Primary Fluor LiCor IRDye 700DX

T1 sequence (P02693 with tags, fused parts or gaps with the stated changes): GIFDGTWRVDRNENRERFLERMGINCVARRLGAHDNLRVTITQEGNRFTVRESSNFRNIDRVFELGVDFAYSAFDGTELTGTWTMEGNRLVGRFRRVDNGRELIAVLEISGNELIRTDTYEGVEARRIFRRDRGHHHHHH

Question: With CC/C=C\C/C=C\C/C=C\CCCCCCCC(=O)O [Linolenate 18:3 (n-3), Linolenate] as the molecule, how does the Kd [1] read?
Answer: Its Kd is 3460 nM.

B1: BL8P20 G3: SEQ 3 mutein: 18L, 38M, 60F, 73F, 106T, 115R, 117E (protein)
chain: AFDGTWKVDRNENYEKFLEKMGINVVKRKLGAHDNLKMTITQEGNKFTVKESSNFRNIDFVFELGVDFAYSAFDGTELTGTWTMEGNKLVGKFKRVDNGKELIAVTEISGNELIRTETYEGVEAKRIFKKDRGHHHHHH
modifications: acrylodan labeled; rat intestinal fatty acid binding protein with substitution of Xaa at one or more of 14, 18, 23, 25, 27, 31, 36, 38, 55, 60, 72, 73, 74, 78, 102, 104, 106, 115 and 117; rat intestinal fatty acid binding protein in which one amino acid residue may be substituted with cysteine or lysine; optional 6His tag at N terminus; Xaa=any amino acid
Question: Which Kd [2, 3] does the source give for B1 here?
Answer: The Kd was 2310 nM.

Question: What about the Is [2, 4] of the same molecule?
Answer: The Is was 0.09.

B2: BL8P21 E8: SEQ 3 mutein: 18L 38I 60H 73F 106D 115R 117E (protein)
chain: AFDGTWKVDRNENYEKFLEKMGINVVKRKLGAHDNLKITITQEGNKFTVKESSNFRNIDHVFELGVDFAYSAFDGTELTGTWTMEGNKLVGKFKRVDNGKELIAVDEISGNELIRTETYEGVEAKRIFKKDRGHHHHHH
modifications: acrylodan labeled; rat intestinal fatty acid binding protein with substitution of Xaa at one or more of 14, 18, 23, 25, 27, 31, 36, 38, 55, 60, 72, 73, 74, 78, 102, 104, 106, 115 and 117; rat intestinal fatty acid binding protein in which one amino acid residue may be substituted with cysteine or lysine; optional 6His tag at N terminus; Xaa=any amino acid
Question: What does the source list for B2?
Answer: Kd [2, 3]: 3220 nM; Is [2, 4]: 0.28

B3: BL8P9 C9: SEQ 3 mutein: 18L, 38F, 60F, 73F, 106D, 115R, 117R (protein)
chain: AFDGTWKVDRNENYEKFLEKMGINVVKRKLGAHDNLKFTITQEGNKFTVKESSNFRNIDFVFELGVDFAYSAFDGTELTGTWTMEGNKLVGKFKRVDNGKELIAVDEISGNELIRTRTYEGVEAKRIFKKDRGHHHHHH
modifications: acrylodan labeled; rat intestinal fatty acid binding protein with substitution of Xaa at one or more of 14, 18, 23, 25, 27, 31, 36, 38, 55, 60, 72, 73, 74, 78, 102, 104, 106, 115 and 117; rat intestinal fatty acid binding protein in which one amino acid residue may be substituted with cysteine or lysine; optional 6His tag at N terminus; Xaa=any amino acid
Question: For B3, which Kd [2, 3] is on record?
Answer: The Kd was 723 nM.

Question: And the Is [2, 4]?
Answer: Its Is is 0.00.

B4: BL8P9 G9: SEQ 3 mutein: 18L, 38A, 73F, 106V, 115R, 117D (protein)
chain: AFDGTWKVDRNENYEKFLEKMGINVVKRKLGAHDNLKATITQEGNKFTVKESSNFRNIDVVFELGVDFAYSAFDGTELTGTWTMEGNKLVGKFKRVDNGKELIAVVEISGNELIRTDTYEGVEAKRIFKKDRGHHHHHH
modifications: acrylodan labeled; rat intestinal fatty acid binding protein with substitution of Xaa at one or more of 14, 18, 23, 25, 27, 31, 36, 38, 55, 60, 72, 73, 74, 78, 102, 104, 106, 115 and 117; rat intestinal fatty acid binding protein in which one amino acid residue may be substituted with cysteine or lysine; optional 6His tag at N terminus; Xaa=any amino acid
Question: What does the source list for B4?
Answer: Kd [2, 3]: 1050 nM; Is [2, 4]: 0.29

B5: BL22P1B11 - 25K: SEQ 3 mutein: MGI - KR14 - 14R 18L 25K 27A 38V 60R 73F 106L 115R 117D (protein)
chain: AFDGTWKVDRNENREKFLEKMGINKVARKLGAHDNLKVTITQEGNKFTVKESSNFRNIDRVFELGVDFAYSAFDGTELTGTWTMEGNKLVGKFKRVDNGKELIAVLEISGNELIRTDTYEGVEAKRIFKKDRGHHHHHH
modifications: BL22P1B11; Tyr->Arg; Met-> Leu; Val-> Cys; Lys-> Ala; Leu-> Val; Val-> Arg; Leu-> Ala; Ala-> Phe; Arg-> Leu; Gln-> Arg; Tyr -> Asp; 6His tag at N terminus
Question: With B5 as the molecule, how does the Is [2, 5] read?
Answer: The Is was 0.19.

Question: What about the Kd [2, 5] of the same molecule?
Answer: The Kd was 9500 nM.

Question: What about the Is [2, 6] of the same molecule?
Answer: Its Is is 0.61.

Question: What about the Kd [2, 6] of the same molecule?
Answer: The Kd was 700 nM.

Question: And the Is [2, 7]?
Answer: Its Is is 0.67.

Question: And the Kd [2, 7]?
Answer: Its Kd is 239 nM.

Question: What about the Is [2, 8] of the same molecule?
Answer: Its Is is 0.14.

Question: What about the Kd [2, 8] of the same molecule?
Answer: The Kd was 80 nM.

B6: L1P1 B4: SEQ 3 mutein: 14I 72W 117W (protein)
chain: AFDGTWKVDRNENIEKFMEKMGINVVKRKLGAHDNLKLTITQEGNKFTVKESSNFRNIDVVFELGVDFAYSWADGTELTGTWTMEGNKLVGKFKRVDNGKELIAVREISGNELIQTWTYEGVEAKRIFKKDRGHHHHHH
modifications: acrylodan label; rat intestinal fatty acid binding protein with substitution of Xaa at one or more of 14, 18, 23, 25, 27, 31, 36, 38, 55, 60, 72, 73, 74, 78, 102, 104, 106, 115 and 117; rat intestinal fatty acid binding protein in which one amino acid residue may be substituted with cysteine or lysine; optional 6His tag at N terminus; Xaa=any amino acid
Question: What does the source list for B6?
Answer: Kd [2, 3]: 711 nM; Is [2, 4]: 0

B7: L1P1 C 12: SEQ 3 mutein: 38I 72W 117W (protein)
chain: AFDGTWKVDRNENYEKFMEKMGINVVKRKLGAHDNLKITITQEGNKFTVKESSNFRNIDVVFELGVDFAYSWADGTELTGTWTMEGNKLVGKFKRVDNGKELIAVREISGNELIQTWTYEGVEAKRIFKKDRGHHHHHH
modifications: acrylodan label; rat intestinal fatty acid binding protein with substitution of Xaa at one or more of 14, 18, 23, 25, 27, 31, 36, 38, 55, 60, 72, 73, 74, 78, 102, 104, 106, 115 and 117; rat intestinal fatty acid binding protein in which one amino acid residue may be substituted with cysteine or lysine; optional 6His tag at N terminus; Xaa=any amino acid
Question: With B7 as the molecule, how does the Kd [2, 3] read?
Answer: Its Kd is 35.8 nM.

Question: What about the Is [2, 4] of the same molecule?
Answer: The Is was 0.11.

B8: L1P14 D6: SEQ 3 mutein: 14M 72V 117W (protein)
chain: AFDGTWKVDRNENMEKFMEKMGINVVKRKLGAHDNLKLTITQEGNKFTVKESSNFRNIDVVFELGVDFAYSVADGTELTGTWTMEGNKLVGKFKRVDNGKELIAVREISGNELIQTWTYEGVEAKRIFKKDRGHHHHHH
modifications: acrylodan label; rat intestinal fatty acid binding protein with substitution of Xaa at one or more of 14, 18, 23, 25, 27, 31, 36, 38, 55, 60, 72, 73, 74, 78, 102, 104, 106, 115 and 117; rat intestinal fatty acid binding protein in which one amino acid residue may be substituted with cysteine or lysine; optional 6His tag at N terminus; Xaa=any amino acid
Question: Which Kd [2, 3] does the source give for B8 here?
Answer: Its Kd is 309 nM.

Question: What about the Is [2, 4] of the same molecule?
Answer: The Is was 0.04.

Reference: patent US10295551B2, “Development and use of fluorescent probes of unbound bilirubin” (Alan Marc Kleinfeld, priority 2011, dated 2019)
